Biological target: stratifin (14-3-3 σ) (UniProt P31947)
Assay: anti-myc IP, anti-stratifin blot
Conditions: reference: wild-type Pkp-3-myc; sites S285

Substance: plakophilin-3 (from UniProt Q9Y446) Pkp-3-myc S285A
- binding against the reference: lost

— paper PMC3790753
